Results reported in the supplement of paper PMC10567573.
± gives the standard deviation.

Assay: protein stability index of a GFP-peptide fusion (GPS, HEK-293T) (PSI 1-6); higher = more stable
[1] = treatment: DMSO, c terminus: a fixed tail appended
[2] = treatment: MLN4924 1 uM, 8 h, c terminus: a fixed tail appended
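Further: 24-mer peptide tiles fused after GFP, lentivirally expressed, FACS-sorted into six equal bins by GFP/DsRed ratio, decoded by Illumina sequencing, PSI is the read-weighted mean bin number.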

Row | Sequence | protein stability index [1] | protein stability index [2] | protein stability index (treatment: DMSO, c terminus: native) | protein stability index (treatment: MLN4924 1 uM, 8 h, c terminus: native)
1 | PQQPVMFAQPMMRPPFGAAAVPGT [SNAP91] | 3.75 ± 0.16 | 3.76 ± 0.3 | – | –
2 | GSFNGSEKETMQFLNDRLANYLEK [KRT36] | 3.38 ± 0.28 | 3.58 ± 0.3 | – | –
3 | DGHIDINEFLEAFRLVEKSCPEGD [PPEF2] | 4.67 ± 0.37 | 4.71 ± 0.17 | – | –
4 | LRRGHPAGGEENMTETDAFYKREM [CASP6] | 4.9 ± 0.2 | 4.43 ± 0.84 | – | –
5 | KGFPGCKLGLHDNHWVPACHSFNR [FBXO34] | 2.26 ± 0.69 | 2.48 ± 0.15 | – | –
6 | PHVIVSTTGPNPFTTLTDRELEEY [ADD1] | 4.83 ± 0.17 | 4.91 ± 0.091 | – | –
7 | RGPPHGWPKLCPCLRSGIGSSQAL [MYCL] | 2.21 ± 0.65 | 2.26 ± 0.5 | – | –
8 | KELILDKVYTHPKWNTQTKARSYS [ZC2HC1C] | 2.91 ± 0.44 | 3.44 ± 0.46 | – | –
9 | RLVVQRCSGQKWMIRNWIKHARH [GALNT9] | – | – | 3.21 ± 0.92 | 2.69 ± 0.65
10 | RTTRGLDPLFGMCEKFLQEVDFFQ [INTS4] | 2.05 ± 0.37 | 2.23 ± 0.26 | – | –
11 | RQSSVTESTLYPNPYHQPYISRKY [TPRG1] | 3.44 ± 0.31 | 3.67 ± 0.23 | – | –
12 | NLVSVGYQAGKPDALTKLEQGEPL [ZNF649] | 4.39 ± 0.27 | 4.17 ± 0.4 | – | –
13 | LLFACSPPPASQPVVKALFGASAA [CDC25A] | 2.44 ± 0.12 | 2.35 ± 0.12 | – | –
14 | LTPHIVQYQANKVTHTLTMRQRIS [PPEF2] | 2.89 ± 0.28 | 3 ± 0.17 | – | –
15 | HGAVTVGGTSVGSLGVPGSVGGVP [ZBTB22] | 4.02 ± 0.61 | 4.06 ± 0.37 | – | –
16 | SKCQRLFRSPSMPCSVIRPILKRL [CDC25B] | 2.85 ± 0.2 | 2.65 ± 0.24 | – | –
17 | SISRGRHARTHPQTALLESSCENK [MATN2] | 4.87 ± 0.22 | 4.88 ± 0.27 | – | –
18 | MVPVENTEGPSLLNQKGTAVETEG [SLC2A12] | 5.62 ± 0.19 | 5.11 ± 0.3 | – | –
19 | GTDLPLSEIPRGVRVALDYEAGQV [TRIM15] | 4.33 ± 0.25 | 4.46 ± 0.22 | – | –
20 | PVTCCDVSSNNRLVVTGSGEHASV [TLE6] | 4.19 ± 0.22 | 4.37 ± 0.16 | – | –
21 | NSLEMTPAVRQRVIEEAKTAFLLN [HMOX1] | 3.67 ± 0.2 | 3.63 ± 0.31 | – | –
22 | MTTESGSDSESKPDQEAEPQEAAG [EPB41L3] | 5.62 ± 0.33 | 5.56 ± 0.45 | – | –
23 | VRKSRDKAKRRNQEMQQKLVELSA [CEBPD] | 3.78 ± 0.34 | 3.72 ± 0.43 | – | –

Row | Sequence | protein stability index [1] | protein stability index [2] | protein stability index (treatment: DMSO, c terminus: native) | protein stability index (treatment: MLN4924 1 uM, 8 h, c terminus: native)
24 | PADSAQLLSLNSLLPESGIVADIE [TFE3] | 4.93 ± 0.19 | 5.1 ± 0.19 | – | –
25 | LLKSHTNVLSVNLPDNFTLKEDGM [TPH1] | 3.15 ± 0.24 | 3.22 ± 0.34 | – | –
26 | AERLGVTFFEVSPLCNFNIIESFT [RAB40A] | 2.32 ± 0.65 | 2.5 ± 0.46 | – | –
27 | SSGKVLPKWGWEQLEVTCTPYLKE [POMT2] | 2.64 ± 0.33 | 2.67 ± 0.33 | – | –
28 | IVSEVQFVESSGGGSSAVGQFVSL [BRF1] | 2.25 ± 0.23 | 2.23 ± 0.26 | – | –
29 | LKAFNMFVRLFVDENLDRMVPISK [NOL4L] | 2.67 ± 0.61 | 2.41 ± 0.27 | – | –
30 | AEELALEQAKKESEDQKRLKQAKE [CHCHD3] | 5.72 ± 0.22 | 5.41 ± 0.29 | – | –
31 | AFEFKKPVRPVSRGCLHSHGLQEG [CDC25A] | 2.87 ± 0.28 | 2.82 ± 0.23 | – | –
32 | NWPKNSNGVTQKASAPTYPSLYSS [NANOGP8] | 3.53 ± 0.21 | 3.65 ± 0.25 | – | –
33 | YFTDLFDYLPLTALVDGQIFCLHG [PPP2CA] | 3.22 ± 0.39 | 2.91 ± 0.3 | – | –
34 | KTTQEAEKLLERQGQAKTPDSMFL [CDK11A] | 4.68 ± 0.28 | 4.73 ± 0.2 | – | –
35 | TSLTALSLASASPPLSGRSTPKLT [PPFIA4] | 4.17 ± 0.08 | 4.13 ± 0.12 | – | –
36 | ISFNKTMTQLSSTLARCAKDILGF [PKD2L1] | 2.96 ± 0.85 | 2.62 ± 0.56 | – | –
37 | MNSLVSWQLLLFLCATHFGEPLEK [KISS1] | 3.18 ± 0.67 | 3.07 ± 0.51 | – | –
38 | FSSNIHTYHVGKQCFFNGVFLGNK [SPATS1] | 2.56 ± 0.39 | 2.05 ± 0.32 | – | –
39 | FHCLWDDSFPEGPERLHAIKEQLI [HDAC6] | 2.47 ± 0.26 | 2.41 ± 0.33 | – | –
40 | KSRRKAALSSPRSRKNATQPPNAE [INTS3] | 5.08 ± 0.33 | 4.98 ± 0.39 | – | –
41 | VPWESDIWDINNQICTVKDIKAEP [ATF6] | 4.02 ± 0.24 | 3.9 ± 0.25 | – | –
42 | PPDRTLGCWATDAAPAAGLCGAGS [RSPH3] | 3.79 ± 0.15 | 3.71 ± 0.32 | – | –
43 | AYRTQVSSCCLHICQGIRGLWGTT [PKD2L1] | 2.34 ± 0.45 | 2.27 ± 0.28 | – | –
44 | QDLVELYLTNCEKLSAKSLQTLRS [ZER1] | 2.1 ± 0.2 | 2.54 ± 0.21 | – | –
45 | GLWGTTLTENTAENRELYIKTTLR [PKD2L1] | 3.19 ± 0.15 | 3.2 ± 0.17 | – | –
46 | REAMLEMLLQHQICKEVQAEQEPT [SPAG8] | 4.1 ± 0.25 | 4.15 ± 0.39 | – | –

Row | Sequence | protein stability index [1] | protein stability index [2] | protein stability index (treatment: DMSO, c terminus: native) | protein stability index (treatment: MLN4924 1 uM, 8 h, c terminus: native)
47 | APHTPPLPRRPRKGSSELGFPRVA [RNF208] | 4.17 ± 0.21 | 4.06 ± 0.13 | – | –
48 | VINPMLNPIIYSFRNPDVQSAIWR [OR3A1] | 2.06 ± 0.51 | 2.24 ± 0.19 | – | –
49 | QRRASTVSSVTQVEVDENAYRCGS [NET1] | 5.01 ± 0.45 | 5.02 ± 0.2 | – | –
50 | KGNLLRHIKLHSGEKPFKCHLCNY [IKZF1] | 2.37 ± 0.38 | 2.4 ± 0.23 | – | –
51 | EGLGQSLGNFKDDLLNVCMRHVEK [TRIM29] | 3.62 ± 0.27 | 3.78 ± 0.27 | – | –
52 | GYSIKVFDFERSGLQHAPEPDAAD [SMAD6] | 4.26 ± 0.37 | 4 ± 0.17 | – | –
53 | YSYASTHRLMTDARRRVCHTEDFQ [CPXM2] | 2.91 ± 0.37 | 3.44 ± 0.36 | – | –
54 | PPPGSLSRTQEPSLGKQKVFIIRK [SOAT2] | 3.51 ± 0.17 | 3.73 ± 0.17 | – | –
55 | MVESRYALLIVDSATALYRTDYSG [RAD51] | 3 ± 0.79 | 2.86 ± 0.71 | – | –
56 | GTGRSAKEQVLRKGTENLQRAQAE [FCHSD1] | 5.09 ± 0.19 | 5.02 ± 0.4 | – | –
57 | ESASSQSGCLRISIQKLSNESRYM [NECAB1] | 2.76 ± 0.2 | 2.78 ± 0.31 | – | –
58 | PEFDYLKSLEIEEKINKIKWLPQQ [PPP2R2C] | 3.52 ± 0.23 | 3.58 ± 0.2 | – | –
59 | LLHNDEYQETMVESTFMYLTLDLP [USP39] | 2.31 ± 0.29 | 2.29 ± 0.34 | – | –
60 | HIIHVWEETGSRFHNCLIQLYCEK [VPS39] | 2.44 ± 0.4 | 2.37 ± 0.36 | – | –
61 | VTSQERHCLQQRRKSVPGPGNRTC [ADAMTSL2] | 4.92 ± 0.42 | 4.824 ± 0.006 | – | –
62 | VTNHNIRLFEDVRSWMFRRGPLNS [TRIM43] | 2.56 ± 0.45 | 2.49 ± 0.18 | – | –
63 | KRKREEEEEKEPLAVDSWWLDPGH [SERTAD1] | 4.64 ± 0.38 | 4.79 ± 0.15 | – | –
64 | YNIATRRKALKNPSEEYGKILEVV [MLH1] | – | 2.74 ± 0.48 | – | –
65 | LEAAEVILEHAHRGEQTTSQVSWE [FCHSD1] | 3.63 ± 0.58 | 4.25 ± 0.79 | – | –
66 | ADLLAGFGGSFMAPSPSPVTPAQN [SNAP91] | 4.16 ± 0.38 | 4.28 ± 0.24 | – | –
67 | ESHEVPGTLSMGVPQIFKYGETCF [ZNF24] | 2.74 ± 0.39 | 2.89 ± 0.73 | – | –
68 | GKAAQAGVAVGDWVLSIDGENAGS [PDLIM7] | 3.97 ± 0.24 | 4.2 ± 0.42 | – | –
69 | VSRGPGVNVGTTALWKHLKSMHRE [ZBED2] | 3.22 ± 0.14 | 3.3 ± 0.32 | – | –

Row | Sequence | protein stability index [1] | protein stability index [2] | protein stability index (treatment: DMSO, c terminus: native) | protein stability index (treatment: MLN4924 1 uM, 8 h, c terminus: native)
70 | IKSDEECRDLVDEAKNYLLLPQER [KLHL20] | 4.68 ± 0.14 | 4.64 ± 0.13 | – | –
71 | PTPVGAVQQDPALSSNREAHQHRD [CSNK1G3] | 5.37 ± 0.21 | 5.41 ± 0.19 | – | –
72 | KLPSSGSGKRLSGVSSVDSAFSSR [RIPK4] | 3.9 ± 0.095 | 3.99 ± 0.4 | – | –
73 | DPSVRLKIASLLGLLSKTAGFSPD [INTS4] | 2.57 ± 0.46 | 2.38 ± 0.26 | – | –
74 | ELVLVSAGFDAARGDPLGGCQVSP [HDAC6] | 2.89 ± 0.27 | 3.14 ± 0.35 | – | –
75 | ESRAPSPLLHKDSASLEVVKKDHV [CBY2] | 5.18 ± 0.3 | 5.27 ± 0.24 | – | –
76 | RYGRRTAIILSSCLLGLGSLVLIL [SLC2A12] | 5.23 ± 0.14 | 5.1 ± 0.14 | – | –
77 | RDGYGMTPLLAASVTGHTNIVEYL [FEM1A] | 2.92 ± 0.22 | 2.93 ± 0.24 | – | –
78 | ELEKNFSNFPRQYFALRKILKQLI [TRIM39] | 2.58 ± 0.92 | 2.85 ± 1.3 | – | –
79 | PIPVVFVLRHFHLLSDGSNTLSVS [SLC6A17] | 2.83 ± 0.81 | 2.84 ± 0.47 | – | –
80 | VEVISDTLSKPSPMPVSQECFETL [CHGA] | 3.85 ± 0.092 | 3.87 ± 0.25 | – | –
81 | FGMAKIDNLLQEMLLGGSPSDAPH [HNF4A] | 2.8 ± 0.25 | 2.76 ± 0.28 | – | –
82 | IVVIPGKVEEVSLPEQVDIIISEP [CARM1] | 2.47 ± 0.45 | 2.16 ± 0.29 | – | –
83 | ARSAASYMLFDPKDSVMQQNLVYY [P3H4] | 2.28 ± 0.48 | 2.08 ± 0.45 | – | –
84 | EESKEPKEEKQRRRCKPKKPTRRD [GNAS] | 5.42 ± 0.11 | 5.44 ± 0.16 | – | –
85 | LQREKEFKAKEAAALGSRGSCSTE [ATP6V1G1] | 5.12 ± 0.14 | 5.1 ± 0.48 | – | –
86 | AHKCLECGKCFSQNTHLTRHQRTH [ZNF263] | 4.92 ± 0.14 | 5 ± 0.3 | – | –
87 | CYKGHLEMVRFLLEAGADQEHKTD [ANKRD17] | 2.91 ± 0.13 | 3.02 ± 0.32 | – | –
88 | ALASISHVAHVTITTKTADGKCAY [MLH1] | – | 2.63 ± 0.3 | – | –
89 | NTHVSQVFNLFRTMGLRHLPVVNA [CLCN6] | 2.57 ± 0.39 | 2.12 ± 0.15 | – | –
